Measured values reported in patent US20190248902A1 (published 2019).
Numbering of substitutions follows the chain as printed.

B1: 56E5 (antibody, V domains shown)
VH: QVQLVQSGAEVKKPGASVKVSCQASGYTFTGYHMHWVRQAPGQGLEWMGWINPNNNATNYAQKFQGRVTMTRDTSISTAYMELRRLRSDDTAVYHCARDGTSSFDYWGQGTLVTVSS
VL: DIQMTQSPSSVSASVGDRVTITCRASQGIRKWLAWYQQKPGKAPKLLIYAASSLQSGVPSRFSGSGSGTDFTLTISSLQPEDFATYYCQQANSFPFTFGPGTKVDIK
B2: 72G9 (antibody, V domains shown)
VH: EVQLVESGGGLVKPGGSLRLSCAASGFTFSSYSMNWVRQAPGKGLEWVSSISGSSSYIYYADSVKGRFTISRDNAKNSLYLQMNSLRAEDTAVYFCARGGSRGFDPWGQGTLVTVSS
VL: B1 VL with V11L, G28S, R30T, K31S, W32Y, A34N, A50T, A91S, N92H
B3: 176H4 (antibody, V domains shown)
VH: QVQLVESGGGVVQPGRSLRLSCAASGFTFSSYGMHWVRQAPGKGLEWVAIIWYDGSYKYYADSVKGRFTISRDNSKNTLYLQMSSLRAEDTAVYYCARDAHDFWSGYFAYWGQGALVTVSS
VL: DIVMTQTPLSLSVTPGQPASISCKSSQSLLHGDGKTYLYWYLQKPGQPPQLLIYEVSNRFSGVPDRFSGSGSGTDFTLKISRVEAEDVGIYYCMQSIQIPWTFGQGTRVEIK
B4: 7E11 (antibody, V domains shown)
VH: QVQLVESGGGVVQPGRSLRLSCAASGFTFSSFGMHWVRQAPGKGLEWVAIIWHDGSNKYYADSVKGRFTISRDNSNNTLYLQMSSLRAEDTAVYYCARDLSMGGMDVWGQGTTVTVSS
VL: DIQMTQSPSSLSASVGDRVTIACRASQNIISYLNWYQQKPGKAPKFLIYTASSLQSGVPSRFSGSGSGTDFTLTISSLQPEDFAIYYCQQTYSTPLTFGGGTKVEIK
B5: 75G3 (antibody, V domains shown)
VH: QVQLQQWGAGLLKPSETLSLTCAVYGGSLSGSYWSWIRQPPGKGLEWIGEINLSGSTNYNPSLKSRVTISVDTSKSQFSLTLRSVTAADTAVYYCARDYGGLDYWGQGTLVTVSS
VL: EIVLTQSPGTLSLSPGERATLSCRARQNVDSSYLAWYQQKPGQAPRLLIYGASSRATGIPDRFSGSGSGTDFTLTISRLEPEDFAVFYCQQYERSPWTFGQGTKVEIK
B6: 48B12 (antibody, V domains shown)
VH: EVQLLESGGGLVQPGGSLRLSCAASGFTFSSYAMNWVRQAPGKGLEWVSAISGRGGNTFYADSVKGRFTISRDNSKNTLYLQMNSLRAEDTAVYYCAKRETYNWNYEGFDYWGQGTLVTVSS
VL: SYELTQPPSVSVSPGQTARITCSGDALPKKYAYWYQQKSGQAPVLVIYEDSKRPSGIPERFSGSSSGTMATLTISGAQVEDEADYYCNSTDSSGNHVVFGGGTKLTVL
B7: 12D2 (antibody, V domains shown)
VH: EVQLVESGGGLVKPGGSLRLSCAASGFTFSSYSMNWVRQAPGKGLEWVSSISSSSSYIYYADSVKGRFTISRDNAKNSLYLQMNSLRAEDTAVYYCARLGDYWGQGTLVAVSS
VL: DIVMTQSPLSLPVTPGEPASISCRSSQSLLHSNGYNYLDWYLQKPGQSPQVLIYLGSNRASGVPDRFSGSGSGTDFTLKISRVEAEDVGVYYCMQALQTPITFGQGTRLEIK
B8: 22G5 (antibody, V domains shown)
VH: EVQLLESGGGLVQPGGSLRLSCAASGFTFSSYAMNWVRQAPGMGLEWVSVISRSGGYTYYADSVKGRFTISRDNSKNTLYLQMNSLRAEDTAVYYCASRLAVAGSEAFDIWGQGTLVTVSS
VL: DIQMTQSPSSLSASVGDRVTITCRASQNISSYLNWYQQKQGKAPKLLIYAASSLQNGVPSRFSGRGSGTDFTLTISSLQPEDFATYYCQQSYRTPLFTFGPGTKVDFK
B9: 190F8 (antibody, V domains shown)
VH: QVQLVESGGGVVQPGRSLRLSCAASGFTFSTYGMHWVRQAPGKGLEWVAVIWYDGSNKNYADSVKGRFTISRDNSKNTLYLQMNSLRAEDTAVYYCARDQGVGYDGLDVWGQGTTVTVSS
VL: DIQMTQSPSSLSASVGDRVTITCRTSQGIGNYLAWFQQKPGKAPKSLLYKASSLQSGVPSKFSGSGSGTDFTLTISSLQPEDFATYYCQQYMTYPLTFGGGTKVEIK
B10: 191G10 (antibody, V domains shown)
VH: B9 VH with T31S
VL: B9 VL with N31K, A51V
B11: 191G1 (antibody, V domains shown)
VH: B9 VH with T31S, K58E, N59H, Q100R, D105Y
VL: B9 VL with T25A, G30S, L48I, K50A, Q90H, M92L
B12: 198G3 (antibody, V domains shown)
VH: B9 VH with R19K, S56T, Y80C
VL: B9 VL with T5A, N31K, S56G
B13: 25A4 (antibody, V domains shown)
VH: QVLLVQSGAEVKRPGASVKVSCKASGYTFTNYDINWVRQATGQGLEWMGWMYPNSGNTGYAQKFQGRVTMTRNTSISTAYMELSSLRSEDTAVYYCASSSGWYYFDYWGQGTLVTVSS
VL: DIVMTQFPDSLAVSLGERATIKCKSSQSVLYSSHNNNYLAWYQQKPGQPPKLLLYWASTRESGVPDRFSGSGSGTEFTLTISSLEAEDVAVYYCQQYYSTPPTFGQGTKVEIK
B14: 26C4 (antibody, V domains shown)
VH: B13 VH with L3Q, R13K, T41S, Y52N, K63R, S77N
VL: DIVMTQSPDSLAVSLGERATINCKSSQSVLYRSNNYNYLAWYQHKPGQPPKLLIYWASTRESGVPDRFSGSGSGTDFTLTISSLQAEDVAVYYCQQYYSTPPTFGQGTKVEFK
B15: 29H8 (antibody, V domains shown)
VH: B13 VH with L3Q, K12Q, R13K, Y52N, K63R, T78A
VL: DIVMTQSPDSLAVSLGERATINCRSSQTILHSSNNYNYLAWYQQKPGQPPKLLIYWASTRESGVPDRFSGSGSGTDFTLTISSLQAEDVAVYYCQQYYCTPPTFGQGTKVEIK
B16: 184E7 (antibody, V domains shown)
VH: QVQLVQSGAEVKTPGASVKVSCRASGYTFTSYNMHWVRQVPGQGLEWMGWINPNNGGSNYTQKFQGRVTMTRDTSISTAYMELSRLRSDDTAVYYCARKFGDWGQGTLVTVSS
VL: DIQMTQSPSSRSASIGERVTITCRASQGISNYLAWIQQKPGTAPKSLIYAASSLQSGVSSRFSGSGFGTDFTITISSVQREDFATYYCQQYNGYPFTFGHGTKVDIK
B17: 54E9 (antibody, V domains shown)
VH: QVQLVQSGAEVKKPGASVKVSCKASGYTFNSYGISWVRLAPGQGLEWMGWISAYNGNTKNAQKLQGRVTMTTDTSTSTAYMELRSLRSDDTAVYYCARHDFWSGYYKGMDVWGQGTTVTVSS
VL: not shown

Columns and labels:
[1] = biological target: T1, human ASGR-1 (human, UniProt P07306 1-291); assay: FACS ligand blocking on CHO-S ASGR-1 cells; labelled ligand biotin-GalNAc-PAA (synthetic sugar)
T1 construct: Stably expressed on CHO-S cells (CHO-S:huASGR-1); The method text says human or mouse ASGR-1 cells were used; also called huASGR-1; hASGR-1
T1 sequence: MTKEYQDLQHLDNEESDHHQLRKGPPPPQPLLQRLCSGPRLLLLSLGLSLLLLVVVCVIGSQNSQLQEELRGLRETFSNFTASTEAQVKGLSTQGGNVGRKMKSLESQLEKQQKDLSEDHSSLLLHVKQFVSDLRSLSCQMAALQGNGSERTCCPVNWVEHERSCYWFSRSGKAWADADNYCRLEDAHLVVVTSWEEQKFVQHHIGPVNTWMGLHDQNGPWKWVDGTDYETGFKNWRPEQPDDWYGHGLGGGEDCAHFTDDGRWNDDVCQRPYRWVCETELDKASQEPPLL
Description: (§1) All ASGR-1 antibodies that bound either human or mouse ASGR-1 stable CHO—S cells were then tested for ligand blocking using both a protein ligand and a synthetic sugar ligand. The method in brief is as follows: first, 20 ul of either CHO-Shuman or mouse ASGR-1 cells were added to wells of a 384 well plate (30 k cells/well) followed by spin and discarding the supernatant. Second, 10 ul of the antibodies (either purified from hybridoma supernatants or made recombinantly) were added in duplicate to the cells in a dilution series (200 nM top concentration, 1:2 serial dilution, 11 point curve) and were incubated for 30 min at 4 C. […] After 30 min incubation at 4C, the plate was spun and washed twice with FACS buffer+1 mM CaCl2 followed by the detection streptavidin-AF647 at 1:1000 dilution. After 30 min at 4C, the cells were spun and washed once and then 60 ul PI added at 1:1000 dilution and the plates delivered to a core flow cytometry facility. The plates were read and processed similarly to the cell binding method except the signal now represents an inhibition curve and typically decreases a function of increasing antibody concentration. IC50 nM potency and % Inhibition were reported. […] Differences in the ability of antibodies to block these two ligands could occur as a result of differences in, for example, avidity stemming from differences in the number and/or orientation of the ASGR binding terminal sugar residues of each ligand, steric hindrance between antibody and each ligand, and/or changes in the conformation of ASGR induced by antibody binding that selectively alters the binding of each ligand.

[2] = biological target: T1, human ASGR-1; assay: FACS ligand blocking on CHO-S ASGR-1 cells; competitor biotinylated asialofetuin
Description: as §1

% Inhibition [1]	IC50 [1]	% Inhibition [2]	IC50 [2]	Binder
99%	45 nM	99%	23 nM	B1
20%	24 nM	20%	53 nM	B2
79%	–	99%	–	B3
37%	40 nM	99%	13 nM	B4
99%	115 nM	99%	29 nM	B5
94%	86 nM	99%	19 nM	B6
10%	2.1 nM	20%	10 nM	B7
93%	–	99%	–	B8
83%	44 nM	98%	34 nM	B9
99%	56 nM	99%	27 nM	B10
78%	62 nM	99%	24 nM	B11
81%	5 nM	99%	26 nM	B12
77%	40 nM	99%	11 nM	B13
83%	36 nM	99%	6.6 nM	B14
99%	17 nM	99%	7 nM	B15
99%	10 nM	99%	23 nM	B16
19%	100 nM	75%	50 nM	B17
